Substitutions are numbered along the chain they refer to.
T1: human EphB1 extracellular region-SEAP-His protein (human, UniProt P54762 18-540)
T1 construct: extracellular domain; also called hEphB1-SEAP-His
T1 sequence (looked up): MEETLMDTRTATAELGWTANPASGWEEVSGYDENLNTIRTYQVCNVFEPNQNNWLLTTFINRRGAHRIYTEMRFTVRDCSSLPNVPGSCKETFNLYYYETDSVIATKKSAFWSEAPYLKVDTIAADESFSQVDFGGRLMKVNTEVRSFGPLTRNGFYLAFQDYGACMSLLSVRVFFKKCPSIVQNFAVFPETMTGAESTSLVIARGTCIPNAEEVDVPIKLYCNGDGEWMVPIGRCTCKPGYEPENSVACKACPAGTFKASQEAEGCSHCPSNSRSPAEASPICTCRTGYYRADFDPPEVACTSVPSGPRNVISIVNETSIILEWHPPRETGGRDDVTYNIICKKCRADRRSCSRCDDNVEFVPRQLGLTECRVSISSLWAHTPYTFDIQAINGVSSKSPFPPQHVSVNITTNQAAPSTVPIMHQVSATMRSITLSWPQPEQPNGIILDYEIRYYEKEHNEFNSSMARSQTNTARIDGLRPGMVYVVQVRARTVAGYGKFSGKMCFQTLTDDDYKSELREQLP

T2: human EphA6 extracellular region-SEAP-His protein (human, UniProt Q9UF33 23-550)
T2 construct: extracellular domain; also called hEphA6-SEAP-His
T2 sequence (looked up): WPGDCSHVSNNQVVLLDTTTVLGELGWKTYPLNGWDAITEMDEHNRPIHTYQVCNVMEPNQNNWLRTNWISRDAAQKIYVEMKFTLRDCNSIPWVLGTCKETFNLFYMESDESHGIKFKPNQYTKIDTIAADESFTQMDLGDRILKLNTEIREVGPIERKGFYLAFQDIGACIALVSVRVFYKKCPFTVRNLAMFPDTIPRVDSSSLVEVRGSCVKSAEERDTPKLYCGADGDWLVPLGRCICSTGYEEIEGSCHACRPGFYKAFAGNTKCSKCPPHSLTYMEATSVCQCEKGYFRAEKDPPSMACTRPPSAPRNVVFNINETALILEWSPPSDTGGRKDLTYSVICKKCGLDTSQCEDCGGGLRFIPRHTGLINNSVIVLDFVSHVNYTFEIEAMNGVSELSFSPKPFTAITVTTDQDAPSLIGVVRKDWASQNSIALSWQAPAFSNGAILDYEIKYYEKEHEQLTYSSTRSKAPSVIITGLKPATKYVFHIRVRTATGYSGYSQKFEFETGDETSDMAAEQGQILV

T3: human EphA7 extracellular region-SEAP-His protein (human, UniProt Q15375 28-555)
T3 construct: extracellular domain; also called hEphA7-SEAP-His
T3 sequence (looked up): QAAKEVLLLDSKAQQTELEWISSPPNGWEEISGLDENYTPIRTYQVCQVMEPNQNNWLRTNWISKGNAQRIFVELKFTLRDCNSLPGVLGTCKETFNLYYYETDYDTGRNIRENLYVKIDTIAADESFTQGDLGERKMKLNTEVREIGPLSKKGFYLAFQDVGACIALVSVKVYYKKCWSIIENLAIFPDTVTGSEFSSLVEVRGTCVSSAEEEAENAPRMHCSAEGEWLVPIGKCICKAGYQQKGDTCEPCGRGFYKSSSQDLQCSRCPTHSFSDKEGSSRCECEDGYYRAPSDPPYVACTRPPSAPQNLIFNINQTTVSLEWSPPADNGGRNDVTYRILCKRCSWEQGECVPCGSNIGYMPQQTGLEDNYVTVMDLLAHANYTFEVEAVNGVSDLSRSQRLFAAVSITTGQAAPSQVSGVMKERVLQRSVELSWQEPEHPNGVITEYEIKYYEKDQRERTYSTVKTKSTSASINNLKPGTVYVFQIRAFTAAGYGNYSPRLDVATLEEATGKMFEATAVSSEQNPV

T4: human EphB2 extracellular region-SEAP-His protein (human, UniProt P29323 19-543)
T4 construct: extracellular domain; also called hEphB2-SEAP-His
T4 sequence (looked up): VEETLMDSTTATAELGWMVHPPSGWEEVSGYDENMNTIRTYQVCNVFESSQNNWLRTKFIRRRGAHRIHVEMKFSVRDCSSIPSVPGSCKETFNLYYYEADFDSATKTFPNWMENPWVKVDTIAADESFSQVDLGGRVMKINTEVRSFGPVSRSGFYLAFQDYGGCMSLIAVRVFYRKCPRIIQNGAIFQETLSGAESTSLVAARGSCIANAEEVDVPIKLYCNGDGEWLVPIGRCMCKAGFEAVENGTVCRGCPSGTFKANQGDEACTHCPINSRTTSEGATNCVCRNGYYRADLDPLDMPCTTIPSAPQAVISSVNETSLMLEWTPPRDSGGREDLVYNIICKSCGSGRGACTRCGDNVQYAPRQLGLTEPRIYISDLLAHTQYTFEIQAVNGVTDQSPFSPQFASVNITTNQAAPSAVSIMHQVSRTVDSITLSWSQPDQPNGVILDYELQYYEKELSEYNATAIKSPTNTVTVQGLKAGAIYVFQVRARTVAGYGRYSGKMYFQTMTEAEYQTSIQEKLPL

B1: humanized antibody No. 78 (antibody, human IgG1, kappa)
heavy: QVQLVQSGSELKKPGASVKVSCKASGYTFTDYSMHWVRQAPGQGLKWMGWINTETGEPTYADDFKGRFVFSLDTSVSTAYLQISSLKAEDTAVYYCARIPLYYYGSRYWYFDVWGQGTTVTVSSASTKGPSVFPLAPSSKSTSGGTAALGCLVKDYFPEPVTVSWNSGALTSGVHTFPAVLQSSGLYSLSSVVTVPSSSLGTQTYICNVNHKPSNTKVDKRVEPKSCDKTHTCPPCPAPPAAAPSVFLFPPKPKDTLMISRTPEVTCVVVDVSHEDPEVQFNWYVDGVEVHNAKTKPREEQFNSTFRVVSVLTVVHQDWLNGKEYKCKVSNKGLPAPIEKTISKTKGQPREPQVYTLPPSREEMTKNQVSLTCLVKGFYPSDIAVEWESNGQPENNYKTTPPMLDSDGSFFLYSKLTVDKSRWQQGNVFSCSVMHEALHNHYTQKSLSLSPG
light: DIQMTQSPSSLSASVGDRVTITCRASENIYRNLAWYQQKPGKAPKLLVYAATNLADGVPSRFSGSGSGTDYTLTISSLQPEDFATYYCQHFWGTPWTFGQGTKVEIKRTVAAPSVFIFPPSDEQLKSGTASVVCLLNNFYPREAKVQWKVDNALQSGNSQESVTEQDSKDSTYSLSSTLTLSKADYEKHKVYACEVTHQGLSSPVTKSFNRGEC
notes: human Ig kappa; also called L1-4/HK2
B2: humanized antibody No. 140 (antibody, human IgG2)
heavy: QVQLVQSGSELKKPGASVKVSCKASGYTFTDYSMHWVRQAPGQGLKWMGWINTETGEPTYAQGFTGRFVFSLDTSVSTAYLQISSLKAEDTAVYYCARIPLYYYGSRYWYFDVWGQGTTVTVSSASTKGPSVFPLAPSSRSTSESTAALGCLVKDYFPEPVTVSWNSGALTSGVHTFPAVLQSSGLYSLSSVVTVPSSNFGTQTYTCNVDHKPSNTKVDKTVERKSCVECPPCPAPPAAAPSVFLFPPKPKDTLMISRTPEVTCVVVDVSHEDPEVQFNWYVDGVEVHNAKTKPREEQFNSTFRVVSVLTVVHQDWLNGKEYKCKVSNKGLPAPIEKTISKTKGQPREPQVYTLPPSREEMTKNQVSLTCLVKGFYPSDIAVEWESNGQPENNYKTTPPMLDSDGSFFLYSKLTVDKSRWQQGNVFSCSVMHEALHNHYTQKSLSLSPG
light: B1 light
notes: human Ig kappa; also called L1-4/HA2
B3: humanized antibody No. 86 (antibody, human IgG1, kappa)
heavy: B1 heavy with V2I
light: B1 light with V48L, P80S
notes: human Ig kappa; also called L1-5/HK4
B4: humanized antibody No. 138 (antibody, human IgG2)
heavy: B2 heavy with V2I
light: B1 light
notes: human Ig kappa; also called L1-4/HA4
B5: humanized antibody No. 84 (antibody, human IgG1, kappa)
heavy: B1 heavy with K46E
light: B1 light with V48L, P80S
notes: human Ig kappa; also called L1-5/HK1
B6: humanized antibody No. 139 (antibody, human IgG2)
heavy: B2 heavy with K46E
light: B1 light
notes: human Ig kappa; also called L1-4/HA1
B7: humanized antibody No. 83 (antibody, human IgG1, kappa)
heavy: B1 heavy with V2I, D62Q, D63G, K65T
light: B1 light with V48L, P80S
notes: human Ig kappa; also called L1-5/HA4
B8: humanized antibody No. 82 (antibody, human IgG1, kappa)
heavy: B1 heavy with D62Q, D63G, K65T
light: B1 light with V48L, P80S
notes: human Ig kappa; also called L1-5/HA2
B9: humanized antibody No. 89 (antibody, human IgG1, kappa)
heavy: B1 heavy with V2I, D62Q, D63G, K65T
light: B1 light with K45Q, V48L
notes: human Ig kappa; also called L1-6/HA4
B10: humanized antibody No. 88 (antibody, human IgG1, kappa)
heavy: B1 heavy with D62Q, D63G, K65T
light: B1 light with K45Q, V48L
notes: human Ig kappa; also called L1-6/HA2
B11: humanized antibody No. 91 (antibody, human IgG1, kappa)
heavy: B1 heavy
light: B1 light with K45Q, V48L
notes: human Ig kappa; also called L1-6/HK2
B12: humanized antibody No. 92 (antibody, human IgG1, kappa)
heavy: B1 heavy with V2I
light: B1 light with K45Q, V48L
notes: human Ig kappa; also called L1-6/HK4
B13: humanized antibody No. 87 (antibody, human IgG1, kappa)
heavy: B1 heavy with K46E, D62Q, D63G, K65T
light: B1 light with K45Q, V48L
notes: human Ig kappa; also called L1-6/HA1
B14: humanized antibody No. 90 (antibody, human IgG1, kappa)
heavy: B1 heavy with K46E
light: B1 light with K45Q, V48L
notes: human Ig kappa; also called L1-6/HK1
B15: humanized antibody No. 85 (antibody, human IgG1, kappa)
heavy: B1 heavy
light: B1 light with V48L, P80S
notes: human Ig kappa; also called L1-5/HK2
B16: humanized antibody No. 81 (antibody, human IgG1, kappa)
heavy: B1 heavy with K46E, D62Q, D63G, K65T
light: B1 light with V48L, P80S
notes: human Ig kappa; also called L1-5/HA1

Columns and labels:
Assay in all cases: ELISA
[1] = target: T1, human EphB1 extracellular …
[2] = target: T2, human EphA6 extracellular …
[3] = target: T3, human EphA7 extracellular …
[4] = target: T4, human EphB2 extracellular …

Binder | A450 as % of hEphA4-SEAP-His [1] [%] | A450 as % of hEphA4-SEAP-His [2] [%] | A450 as % of hEphA4-SEAP-His [3] [%] | A450 as % of hEphA4-SEAP-His [4] [%]
B1 | 5 | 10 | 5 | 5.1
B2 | 5.3 | 10.8 | 5.2 | 5.3
B3 | 5.7 | 8.6 | 5.6 | 5.7
B4 | 5.1 | 10.2 | 4.9 | 5.2
B5 | 5.2 | 6 | 4.8 | 4.9
B6 | 5.5 | 10 | 5.5 | 5.7
B7 | 5.6 | 7.5 | 5.5 | 5.6
B8 | 5.4 | 8.7 | 5.4 | 5.6
B9 | 5.7 | 8.4 | 5.4 | 5.7
B10 | 6.1 | 7.5 | 6 | 6
B11 | 6.6 | 8.8 | 5.6 | 7
B12 | 6.9 | 9.6 | 6.4 | 6.6
B13 | 5.3 | 6.4 | 5.3 | 5.4
B14 | 4.9 | 7.6 | 4.9 | 5.9
B15 | 5 | 6.2 | 4.8 | 5.1
B16 | 4.9 | 8.8 | 5.2 | 5

Reference: patent publication US20190077860A1 (EISAI R AND D MANAGEMENT, published 2019)
